Measurements published in publication PMC8870054.

Target: CLOBY biosensor (His6-mClover3-spacer with TEV site-Src SH4, unique and SH3 domains-spacer-mRuby3)
Experiment: dynamic light scattering; hydrodynamic radius at variable concentrations up to 275 uM, 25 °C; apparent; dimer to monomers

For “CLOBY biosensor (His6-mClover3-spacer with TEV site-Src SH4, unique and SH3 domains-spacer-mRuby3)”, the Kd was 700 µM.
